# Assay results published in US10941182 (Amgen, dated 2021).
# Starred links: 1 amine or outer side, 2 acyl side, 3 side chain; linkers in the order of their positions; H or OH if unused. Non-standard residues stand in square brackets, D forms with d. Primed or numbered codes have the meaning given here. No end group written: not given here. *: point of attachment. dBip = N[C@H](Cc1ccc(-c2ccccc2)cc1)C(=O)O; Oic = O=C(O)[C@@H]1C[C@@H]2CCCC[C@@H]2N1; Phe(4-Cl) = N[C@@H](Cc1ccc(Cl)cc1)C(=O)O; dPhe(4-Cl) = N[C@H](Cc1ccc(Cl)cc1)C(=O)O; Phe(4-I) = N[C@@H](Cc1ccc(I)cc1)C(=O)O; γGlu = O=C(O)[C@H](CCC(=O)[*:2])N[*:1]; d1Nal = N[C@H](Cc1cccc2ccccc12)C(=O)O; NMeR = CN[C@@H](CCCNC(=N)N)C(=O)O; Tridecanoyl = CCCCCCCCCCCCC(=O)*; hArg = N=C(N)NCCCC[C@H](N)C(=O)O; β3hR = N=C(N)NCCC[C@H](N)CC(=O)O; Cha = N[C@@H](CC1CCCCC1)C(=O)O; β3hQ = NC(=O)CC[C@H](N)CC(=O)O; β3hN = NC(=O)C[C@H](N)CC(=O)O; β3hL = CC(C)C[C@H](N)CC(=O)O; NMeV = CN[C@H](C(=O)O)C(C)C; β3hP = O=C(O)C[C@@H]1CCCN1; code O = not defined here; β3hS = N[C@@H](CO)CC(=O)O; Nle = CCCC[C@H](N)C(=O)O; Orn = NCCC[C@H](N)C(=O)O; Pip′ = not defined here; BPhe = β-phenylalanine; AEEA = NCCOCCOCC(=O)O; Aib = CC(C)(N)C(=O)O; Sar = CNCC(=O)O
# B1: apelin polypeptide SEQ ID NO: 682 (peptide)
# peptide: [Orn]F[hArg][hArg]Q[hArg]P[hArg][Cha]SHKG[Aib][Nle]P[Phe(4-Cl)]
# B2: apelin polypeptide SEQ ID NO: 679 (peptide)
# peptide: [Orn]F[hArg][hArg]Q[hArg]P[hArg][Cha]S[NMeV]KG[Oic][Nle]P[Phe(4-Cl)]
# B3: apelin polypeptide SEQ ID NO: 675 (peptide)
# peptide: Q[hArg]P[NMeR][Cha]SHKG[Oic][Nle]P[Phe(4-Cl)]
# B4: apelin polypeptide SEQ ID NO: 696 (peptide)
# peptide: [Orn]F[hArg][hArg]Q[hArg]P[β3hR][Cha]SHKG[Oic][Nle]P[Phe(4-Cl)]
# B5: apelin polypeptide SEQ ID NO: 670 (peptide)
# peptide: [Orn]F[hArg][NMeR]Q[hArg]P[hArg][Cha]SHKG[Oic][Nle]P[Phe(4-Cl)]
# B6: apelin polypeptide SEQ ID NO: 23 (peptide)
# peptide: Ac-[hArg]Q[dR]P[NMeR][Cha]SHKG[Oic][Nle]P[Phe(4-Cl)]-OH
# B7: apelin polypeptide SEQ ID NO: 690 (peptide)
# peptide: [Orn]F[hArg][hArg][β3hQ][hArg]P[hArg][Cha]SHKG[Oic][Nle]P[Phe(4-Cl)]
# B8: apelin polypeptide SEQ ID NO: 698 (peptide)
# peptide: [Orn]F[hArg][hArg]Q[hArg]P[hArg][Cha][β3hS]HKG[Oic][Nle]P[Phe(4-Cl)]
# B9: apelin polypeptide SEQ ID NO: 680 (peptide)
# peptide: [Orn]F[hArg][hArg]Q[hArg]P[hArg][Cha]SHK[Sar][Oic][Nle]P[Phe(4-Cl)]
# B10: apelin polypeptide SEQ ID NO: 676 (peptide)
# peptide: [Orn]F[hArg][hArg]Q[hArg][Sar][hArg][Cha]SHKG[Oic][Nle]P[Phe(4-Cl)]
# B11: apelin polypeptide SEQ ID NO: 671 (peptide)
# peptide: [Orn]F[hArg][hArg]Q[NMeR]P[hArg][Cha]SHKG[Oic][Nle]P[Phe(4-Cl)]
# B12: apelin polypeptide SEQ ID NO: 693 (peptide)
# peptide: [Orn]F[hArg][hArg]Q[β3hR]P[hArg][Cha]SHKG[Oic][Nle]P[Phe(4-Cl)]
# B13: apelin polypeptide SEQ ID NO: 22 (peptide)
# peptide: Ac-[hArg][hArg]Q[dR]P[NMeR][Cha]SHKG[Oic][Phe(4-I)]P[dBip]-OH
# SMILES: CC(=O)N[C@@H](CCCCNC(=N)N)C(=O)N[C@@H](CCCCNC(=N)N)C(=O)N[C@@H](CCC(N)=O)C(=O)N[C@H](CCCNC(=N)N)C(=O)N1CCC[C@H]1C(=O)N(C)[C@@H](CCCNC(=N)N)C(=O)N[C@@H](CC1CCCCC1)C(=O)N[C@@H](CO)C(=O)N[C@@H](Cc1c[nH]cn1)C(=O)N[C@@H](CCCCN)C(=O)NCC(=O)N1[C@H](C(=O)N[C@@H](Cc2ccc(I)cc2)C(=O)N2CCC[C@H]2C(=O)N[C@H](Cc2ccc(-c3ccccc3)cc2)C(=O)O)C[C@@H]2CCCC[C@@H]21
# B14: apelin polypeptide SEQ ID NO: 691 (peptide)
# peptide: [Orn]F[hArg][hArg][β3hN][hArg]P[hArg][Cha]SHKG[Oic][Nle]P[Phe(4-Cl)]
# B15: apelin polypeptide SEQ ID NO: 677 (peptide)
# peptide: [Orn]F[hArg][hArg]Q[hArg][Aib][hArg][Cha]SHKG[Oic][Nle]P[Phe(4-Cl)]
# B16: apelin polypeptide SEQ ID NO: 689 (peptide)
# peptide: [Orn]F[hArg][β3hR]Q[hArg]P[hArg][Cha]SHKG[Oic][Nle]P[Phe(4-Cl)]
# B17: apelin polypeptide SEQ ID NO: 697 (peptide)
# peptide: [Orn]F[hArg][hArg]Q[hArg]P[hArg][β3hL]SHKG[Oic][Nle]P[Phe(4-Cl)]
# B18: apelin polypeptide SEQ ID NO: 669 (peptide)
# peptide: [Orn]F[NMeR][hArg]Q[hArg]P[hArg][Cha]SHKG[Oic][Nle]P[Phe(4-Cl)]
# B19: apelin polypeptide SEQ ID NO: 672 (peptide)
# peptide: [Orn]F[hArg][hArg]Q[NMeR]P[NMeR][Cha]SHKG[Oic][Nle]P[Phe(4-Cl)]
# B20: apelin polypeptide SEQ ID NO: 695 (peptide)
# peptide: [Orn]F[hArg][hArg]Q[hArg][Pip′][hArg][Cha]SHKG[Oic][Nle]P[Phe(4-Cl)]
# B21: apelin polypeptide SEQ ID NO: 687 (peptide)
# peptide: [Orn][BPhe][hArg][hArg]Q[hArg]P[hArg][Cha]SHKG[Oic][Nle]P[Phe(4-Cl)]
# B22: apelin polypeptide SEQ ID NO: 685 (peptide)
# peptide: [Orn]F[hArg][hArg]Q[hArg]P[hArg][Cha]SHKG[Oic][Nle][Aib][Phe(4-Cl)]
# B23: apelin polypeptide SEQ ID NO: 683 (peptide)
# peptide: [Orn]F[hArg][hArg]Q[hArg]P[hArg][Cha]SHKG[Sar][Nle]P[Phe(4-Cl)]
# B24: apelin polypeptide SEQ ID NO: 24 (peptide)
# peptide: Ac-[hArg]Q[dR]P[NMeR][Cha]SHKG[Oic][Nle]P[dPhe(4-Cl)]-OH
# B25: apelin polypeptide SEQ ID NO: 678 (peptide)
# peptide: [Orn]F[hArg][hArg]Q[hArg]P[hArg][Cha][Sar]HKG[Oic][Nle]P[Phe(4-Cl)]
# B26: apelin polypeptide SEQ ID NO: 285 (peptide)
# peptide: Tridecanoyl-[γGlu][AEEA][AEEA]Q[dR]P[NMeR][Cha]SHKG[Oic][Nle][d1Nal]-OH
# SMILES: CCCCCCCCCCCCC(=O)N[C@@H](CCC(=O)NCCOCCOCC(=O)NCCOCCOCC(=O)N[C@@H](CCC(N)=O)C(=O)N[C@H](CCCNC(=N)N)C(=O)N1CCC[C@H]1C(=O)N(C)[C@@H](CCCNC(=N)N)C(=O)N[C@@H](CC1CCCCC1)C(=O)N[C@@H](CO)C(=O)N[C@@H](Cc1c[nH]cn1)C(=O)N[C@@H](CCCCN)C(=O)NCC(=O)N1[C@H](C(=O)N[C@@H](CCCC)C(=O)N[C@H](Cc2cccc3ccccc23)C(=O)O)C[C@@H]2CCCC[C@@H]21)C(=O)O
# B27: apelin polypeptide SEQ ID NO: 681 (peptide)
# peptide: [Orn]F[hArg][hArg]Q[hArg]P[hArg][Cha]SHK[Aib][Oic][Nle]P[Phe(4-Cl)]
# B28: apelin polypeptide SEQ ID NO: 673 (peptide)
# peptide: [code O]F[hArg][NMeR]Q[NMeR]P[NMeR][Cha]SHKG[Oic][Nle]P[Phe(4-Cl)]
# modifications: reading uncertain
# B29: apelin polypeptide SEQ ID NO: 694 (peptide)
# peptide: [Orn]F[hArg][hArg]Q[hArg][β3hP][hArg][Cha]SHKG[Oic][Nle]P[Phe(4-Cl)]
# Target: T1, rat APJ receptor (rat, UniProt Q9JHG3 1-377)
# T1 sequence (looked up): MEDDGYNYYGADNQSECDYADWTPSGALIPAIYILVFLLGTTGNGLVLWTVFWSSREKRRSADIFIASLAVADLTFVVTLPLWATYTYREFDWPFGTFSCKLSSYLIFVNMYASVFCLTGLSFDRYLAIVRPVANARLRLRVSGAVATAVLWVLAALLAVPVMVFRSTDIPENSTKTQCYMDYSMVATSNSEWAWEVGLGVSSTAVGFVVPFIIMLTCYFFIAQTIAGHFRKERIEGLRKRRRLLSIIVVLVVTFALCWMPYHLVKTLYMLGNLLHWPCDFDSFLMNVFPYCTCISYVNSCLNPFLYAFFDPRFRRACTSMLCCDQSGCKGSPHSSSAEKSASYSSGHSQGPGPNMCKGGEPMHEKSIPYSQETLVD
# Test: cell-based or functional assay
row,Binder,EC50 Rat APJ Receptor [nM]
1,B1,7.98
2,B2,33
3,B3,0.189
4,B4,0.3
5,B5,0.254
6,B6,32.2
7,B7,0.183
8,B8,0.734
9,B9,0.401
10,B10,0.84
11,B11,0.387
12,B12,0.505
13,B13,4.52
14,B14,0.424
15,B15,3.48
16,B16,0.349
17,B17,0.495
18,B18,5.59
19,B19,0.845
20,B20,0.384
21,B21,0.175
22,B22,0.168
23,B23,0.926
24,B24,134
25,B25,2.11
26,B26,122
27,B27,1.3
28,B28,1.34
29,B29,0.602

# Target: T2, human APJ receptor (human, UniProt P35414 1-380)
# T2 sequence (looked up): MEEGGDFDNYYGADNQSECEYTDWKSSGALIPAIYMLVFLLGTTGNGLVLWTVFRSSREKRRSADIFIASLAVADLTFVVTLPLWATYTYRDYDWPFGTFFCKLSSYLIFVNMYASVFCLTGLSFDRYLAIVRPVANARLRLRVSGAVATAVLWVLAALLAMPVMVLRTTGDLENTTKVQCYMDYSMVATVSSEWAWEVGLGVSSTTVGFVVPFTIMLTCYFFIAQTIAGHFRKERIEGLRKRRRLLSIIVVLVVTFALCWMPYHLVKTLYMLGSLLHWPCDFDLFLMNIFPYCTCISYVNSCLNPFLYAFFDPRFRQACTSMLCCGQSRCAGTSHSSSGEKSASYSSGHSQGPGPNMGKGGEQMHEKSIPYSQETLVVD
# Test: cell-based or functional assay
row,Binder,EC50 Human APJ Receptor [nM]
1,B1,1.53
2,B2,3.63
3,B3,0.159
4,B4,0.261
5,B5,0.131
6,B6,0.384
7,B7,0.111
8,B8,0.539
9,B9,0.116
10,B10,0.762
11,B11,0.162
12,B12,0.229
13,B13,1.52
14,B14,0.453
15,B15,3.5
16,B16,0.114
17,B17,0.225
18,B18,5.3
19,B19,0.445
20,B20,0.313
21,B21,0.0918
22,B22,0.0946
23,B23,0.379
24,B24,7.87
25,B25,0.664
26,B26,8.22
27,B27,0.723
28,B28,1.34
29,B29,0.458
